{"source": "patent US20220332804A1", "about": "(CSL INNOVATION, published 2022)", "binders": {"B1": {"name": "RF16-242 (antibody, human IgG4 S228P, lambda, V domains shown)", "VH": "EVQLLQSGAEVKKPGESLKISCKGSGYSFTSYWIGWVRQMPGKGLEWMGIIYPGDSDTRYSPSFQGQVTISADKSISTAYLQWSSLKASDTAMYYCARRGHYGDYFDYWGQGTLVTVSS", "VL": "SYELTQPPSVSVSPGQTARITCSGDALPKKYAYWYHQKSGQAPVLVIYEDRRRPSEIPERFSGSSSGTMATLTITGAQVEDEGVYFCYSRDRAGNQRVFGGGTQLTVLG", "notes": "pH-dependent anti-C2 antibody from a phage display library"}}, "assay_in_all_cases": "SPR, KD relative to WT C2;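 also: biacore SPR at 37 °C, anti-C2 mAbs captured on anti-human IgG chips with alanine or serine point mutants of C2 as analyte, KD from 1:1 fit compared with wild-type C2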", "key": {"[1]": {"biological_target": "T1, human C2 G427A (human, UniProt P06681 21-752)", "T1 sequence": "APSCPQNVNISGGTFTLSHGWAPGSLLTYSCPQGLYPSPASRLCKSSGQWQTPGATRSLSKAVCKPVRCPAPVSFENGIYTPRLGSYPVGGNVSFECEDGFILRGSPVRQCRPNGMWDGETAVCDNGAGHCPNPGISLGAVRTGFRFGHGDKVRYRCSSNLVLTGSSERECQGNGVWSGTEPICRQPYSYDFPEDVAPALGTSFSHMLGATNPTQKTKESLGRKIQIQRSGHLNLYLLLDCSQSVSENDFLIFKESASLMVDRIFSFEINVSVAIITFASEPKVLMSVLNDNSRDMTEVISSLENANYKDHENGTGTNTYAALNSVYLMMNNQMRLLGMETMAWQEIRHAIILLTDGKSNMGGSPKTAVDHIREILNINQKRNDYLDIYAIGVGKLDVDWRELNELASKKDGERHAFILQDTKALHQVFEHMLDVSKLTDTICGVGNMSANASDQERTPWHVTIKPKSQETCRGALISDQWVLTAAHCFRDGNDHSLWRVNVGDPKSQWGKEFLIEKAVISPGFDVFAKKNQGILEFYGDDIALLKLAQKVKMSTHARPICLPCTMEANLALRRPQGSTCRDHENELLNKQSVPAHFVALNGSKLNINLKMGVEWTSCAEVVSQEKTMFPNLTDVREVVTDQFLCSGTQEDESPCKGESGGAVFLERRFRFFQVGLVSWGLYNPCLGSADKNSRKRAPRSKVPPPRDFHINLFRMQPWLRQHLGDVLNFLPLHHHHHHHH"}, "[2]": {"biological_target": "T2, human C2 D431A (human, UniProt P06681 21-752)", "T2 sequence": "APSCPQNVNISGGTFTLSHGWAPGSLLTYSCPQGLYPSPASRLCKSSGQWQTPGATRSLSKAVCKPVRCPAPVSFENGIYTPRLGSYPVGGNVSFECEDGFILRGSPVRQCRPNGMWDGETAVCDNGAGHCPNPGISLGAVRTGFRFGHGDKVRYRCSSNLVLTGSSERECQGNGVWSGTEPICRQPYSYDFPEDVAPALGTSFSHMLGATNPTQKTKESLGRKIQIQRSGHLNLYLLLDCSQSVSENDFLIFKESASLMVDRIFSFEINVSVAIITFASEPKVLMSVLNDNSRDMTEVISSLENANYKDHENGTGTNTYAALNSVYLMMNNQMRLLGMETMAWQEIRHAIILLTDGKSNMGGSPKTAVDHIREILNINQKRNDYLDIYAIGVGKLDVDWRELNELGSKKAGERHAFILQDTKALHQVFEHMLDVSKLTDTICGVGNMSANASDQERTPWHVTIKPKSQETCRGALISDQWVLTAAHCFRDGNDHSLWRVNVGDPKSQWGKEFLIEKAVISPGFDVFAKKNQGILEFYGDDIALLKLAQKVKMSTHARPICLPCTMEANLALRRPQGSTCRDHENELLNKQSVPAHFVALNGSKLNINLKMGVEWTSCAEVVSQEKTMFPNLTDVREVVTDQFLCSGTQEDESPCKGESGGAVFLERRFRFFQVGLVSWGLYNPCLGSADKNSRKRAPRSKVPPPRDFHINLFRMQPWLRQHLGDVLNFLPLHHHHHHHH"}, "[3]": {"biological_target": "T3, human C2 E267A (human, UniProt P06681 21-752)", "T3 sequence": "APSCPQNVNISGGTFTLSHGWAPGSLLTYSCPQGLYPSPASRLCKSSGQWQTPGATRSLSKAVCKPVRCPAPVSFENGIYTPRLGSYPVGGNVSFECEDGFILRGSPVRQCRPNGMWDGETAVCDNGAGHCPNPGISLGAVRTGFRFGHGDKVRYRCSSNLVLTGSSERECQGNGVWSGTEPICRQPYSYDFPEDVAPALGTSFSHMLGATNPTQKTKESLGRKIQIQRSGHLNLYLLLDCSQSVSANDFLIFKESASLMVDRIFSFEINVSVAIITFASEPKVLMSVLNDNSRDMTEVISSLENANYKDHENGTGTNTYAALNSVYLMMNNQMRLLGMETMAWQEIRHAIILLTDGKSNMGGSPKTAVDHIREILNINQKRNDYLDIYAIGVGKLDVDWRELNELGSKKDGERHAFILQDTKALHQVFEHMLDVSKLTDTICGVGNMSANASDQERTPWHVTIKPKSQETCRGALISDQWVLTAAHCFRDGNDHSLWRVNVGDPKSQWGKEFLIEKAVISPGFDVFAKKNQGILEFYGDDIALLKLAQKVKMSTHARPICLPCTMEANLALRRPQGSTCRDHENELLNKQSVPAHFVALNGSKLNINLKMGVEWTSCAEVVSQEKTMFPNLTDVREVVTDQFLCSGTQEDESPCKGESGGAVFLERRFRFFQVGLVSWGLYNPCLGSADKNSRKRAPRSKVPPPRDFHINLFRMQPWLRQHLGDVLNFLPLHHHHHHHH"}, "[4]": {"biological_target": "T4, human C2 G677A (human, UniProt P06681 21-752)", "T4 sequence": "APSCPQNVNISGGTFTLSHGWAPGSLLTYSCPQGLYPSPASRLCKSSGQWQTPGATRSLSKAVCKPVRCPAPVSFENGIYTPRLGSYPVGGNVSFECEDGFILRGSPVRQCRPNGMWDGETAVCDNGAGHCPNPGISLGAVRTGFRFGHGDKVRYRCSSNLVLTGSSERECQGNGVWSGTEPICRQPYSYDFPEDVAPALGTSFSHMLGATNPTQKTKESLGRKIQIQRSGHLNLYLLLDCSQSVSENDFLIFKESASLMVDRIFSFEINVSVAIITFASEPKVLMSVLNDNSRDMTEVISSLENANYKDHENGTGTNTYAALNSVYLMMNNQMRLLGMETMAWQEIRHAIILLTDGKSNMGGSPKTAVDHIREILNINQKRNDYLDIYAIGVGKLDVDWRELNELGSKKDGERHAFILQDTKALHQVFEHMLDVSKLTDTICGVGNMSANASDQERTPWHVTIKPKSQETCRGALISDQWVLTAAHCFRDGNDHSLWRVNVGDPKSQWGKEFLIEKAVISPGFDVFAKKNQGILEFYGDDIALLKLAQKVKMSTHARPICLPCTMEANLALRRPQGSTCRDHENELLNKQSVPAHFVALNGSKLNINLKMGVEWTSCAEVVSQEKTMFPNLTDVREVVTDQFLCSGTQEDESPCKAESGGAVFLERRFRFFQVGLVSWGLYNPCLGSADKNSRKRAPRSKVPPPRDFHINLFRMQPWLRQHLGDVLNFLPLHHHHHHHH"}}}
{"binder": "B1", "values": [{"measurement": "Fold diff", "setting": "[1]", "result": 1, "unit": "fold"}, {"measurement": "Fold diff", "setting": "[2]", "result": 3, "unit": "fold"}, {"measurement": "Fold diff", "setting": "[3]", "result": 2, "unit": "fold"}, {"measurement": "Fold diff", "setting": "[4]", "result": 1, "unit": "fold"}]}
